The values that follow come from the supplement of paper PMC9112550, “Optimization of the antimicrobial peptide Bac7 by deep mutational scanning” (BMC Biology, 2022).

The data set deals with Escherichia coli TOP10. The data set is described as follows: shrunken log2 fold change of peptide-encoding DNA abundance (4.5 h post-induction vs induction); higher = less antimicrobial activity (less host growth inhibition). The note with it: time post-induction: 4.5 h; library: site-saturation at positions 5, 18, 19, 20.
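Note: peptides expressed intracellularly from a pBAD plasmid library in pooled LB shake-flask culture, induced with 0.3% L-arabinose, DNA abundance read by NGS, three biological replicates, DESeq2 with apeglm shrinkage.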

As to RRIRCRPPRLPRPRPRPQPYPRP, the “shrunken log2 fold change” value is -0.975.

As for RRIRVRPPRLPRPRPRPDIHPRP, the “shrunken log2 fold change” value is -0.427. The figure for RRIRYRPPRLPRPRPRPMTCPRP is -0.122; for RRIRERPPRLPRPRPRPEYLPRP it is -1.13. Next, RRIRDRPPRLPRPRPRPGREPRP: 0.603; RRIRPRPPRLPRPRPRPIERPRP: 0.157. Next, RRIRDRPPRLPRPRPRPGVTPRP: 0.596; RRIRPRPPRLPRPRPRPNCCPRP: 0.187; RRIRTRPPRLPRPRPRPADCPRP: -0.082. Turning to RRIRTRPPRLPRPRPRPRYKPRP, the “shrunken log2 fold change” value was -0.909. The figure for RRIRYRPPRLPRPRPRPYLMPRP is -0.254; for RRIRSRPPRLPRPRPRPWFYPRP it is -0.172; for RRIRLRPPRLPRPRPRPIIPPRP it is -0.195. Next, RRIRNRPPRLPRPRPRPLPRPRP: 0.102.

With RRIRVRPPRLPRPRPRPYKKPRP, the “shrunken log2 fold change” value worked out at 0.0251.

RRIRCRPPRLPRPRPRPWRHPRP: the “shrunken log2 fold change” value was -0.126.

As to RRIRFRPPRLPRPRPRPVVEPRP, the “shrunken log2 fold change” value is 0.258. The figure for RRIRQRPPRLPRPRPRPTFEPRP is -0.177; for RRIRERPPRLPRPRPRPFDHPRP it is 0.0195. The figure for RRIRRRPPRLPRPRPRPDIVPRP is 0.17; for RRIRGRPPRLPRPRPRPRRMPRP it is 0.706. The figure for RRIRARPPRLPRPRPRPGKTPRP is 0.312. Take RRIRTRPPRLPRPRPRPKMKPRP: the “shrunken log2 fold change” value was -0.554. Turning to RRIRIRPPRLPRPRPRPSDCPRP, the “shrunken log2 fold change” value was -0.497.

For RRIRMRPPRLPRPRPRPPVIPRP, the “shrunken log2 fold change” value was found to be 0.312. As for RRIRFRPPRLPRPRPRPWWSPRP, the “shrunken log2 fold change” value is -0.18. Next, RRIRVRPPRLPRPRPRPPQMPRP: 0.236. The figure for RRIRFRPPRLPRPRPRPENIPRP is 0.0737; for RRIRSRPPRLPRPRPRPEHWPRP it is 0.422. The figure for RRIRQRPPRLPRPRPRPIGYPRP is -0.0242. With RRIRNRPPRLPRPRPRPRLIPRP, the “shrunken log2 fold change” value is 0.0319.

Consider RRIRTRPPRLPRPRPRPYVVPRP, for which the “shrunken log2 fold change” value was -0.738.

For the sequence RRIRHRPPRLPRPRPRPRRIPRP, the “shrunken log2 fold change” value was 0.0543. For the sequence RRIRKRPPRLPRPRPRPMDTPRP, the “shrunken log2 fold change” value was found to be 0.336. The figure for RRIRKRPPRLPRPRPRPAMEPRP is 0.0841; for RRIRLRPPRLPRPRPRPMGKPRP it is -0.353; for RRIRMRPPRLPRPRPRPRSWPRP it is 1.42. In the case of RRIRCRPPRLPRPRPRPIWTPRP, the “shrunken log2 fold change” value is -0.0919. With RRIRSRPPRLPRPRPRPTYAPRP, the “shrunken log2 fold change” value amounted to 0.0244.

With RRIRQRPPRLPRPRPRPMSSPRP, the “shrunken log2 fold change” value was -0.0871. As for RRIRTRPPRLPRPRPRPEDMPRP, the “shrunken log2 fold change” value was -0.00975.

RRIRCRPPRLPRPRPRPIQLPRP: the “shrunken log2 fold change” value is -0.0847. Next, RRIRQRPPRLPRPRPRPPEVPRP: 0.0121. Turning to RRIRRRPPRLPRPRPRPVELPRP, the “shrunken log2 fold change” value amounted to 0.0415. Next, RRIRFRPPRLPRPRPRPPYGPRP: -0.0784; RRIRYRPPRLPRPRPRPPREPRP: -0.0166; RRIRFRPPRLPRPRPRPIAGPRP: 0.0541. Regarding RRIRERPPRLPRPRPRPMVLPRP, the “shrunken log2 fold change” value turned out to be 0.104. The figure for RRIRLRPPRLPRPRPRPEPRPRP is 0.74; for RRIRPRPPRLPRPRPRPSCTPRP it is -0.221. With RRIRFRPPRLPRPRPRPHWVPRP, the “shrunken log2 fold change” value was -0.523. The figure for RRIRYRPPRLPRPRPRPLKPPRP is -0.696; for RRIRGRPPRLPRPRPRPVYCPRP it is 0.0683. Consider RRIRLRPPRLPRPRPRPGATPRP, for which the “shrunken log2 fold change” value was 0.527.

Turning to RRIRWRPPRLPRPRPRPPTQPRP, the “shrunken log2 fold change” value turned out to be 0.312. The figure for RRIRDRPPRLPRPRPRPWTAPRP is -0.0482. Take RRIRLRPPRLPRPRPRPWTAPRP: the “shrunken log2 fold change” value came out at 0.0908.

With RRIRWRPPRLPRPRPRPDPDPRP, the “shrunken log2 fold change” value turned out to be 0.545. Next, RRIRKRPPRLPRPRPRPKNYPRP: 0.0189; RRIRTRPPRLPRPRPRPTCPPRP: -0.0738. The figure for RRIRQRPPRLPRPRPRPWPCPRP is -0.0164. In the case of RRIRYRPPRLPRPRPRPAHTPRP, the “shrunken log2 fold change” value is -0.113. In the case of RRIRRRPPRLPRPRPRPSSMPRP, the “shrunken log2 fold change” value was -0.143. For the sequence RRIRKRPPRLPRPRPRPQWSPRP, the “shrunken log2 fold change” value is 0.00166.

As for RRIRWRPPRLPRPRPRPQNHPRP, the “shrunken log2 fold change” value was -0.585. For RRIRRRPPRLPRPRPRPREGPRP, the “shrunken log2 fold change” value stood at 1.33. On to RRIRSRPPRLPRPRPRPKCWPRP, for which the “shrunken log2 fold change” value is 0.359.

Regarding RRIRIRPPRLPRPRPRPVRGPRP, the “shrunken log2 fold change” value came out at 0.413. Next, RRIRCRPPRLPRPRPRPWPKPRP: 0.0772. RRIRTRPPRLPRPRPRPMWEPRP: the “shrunken log2 fold change” value was -0.0158. Turning to RRIRDRPPRLPRPRPRPEFRPRP, the “shrunken log2 fold change” value was determined as 0.283. Consider RRIRKRPPRLPRPRPRPKDWPRP, for which the “shrunken log2 fold change” value came out at 0.742.

For the sequence RRIRQRPPRLPRPRPRPFLIPRP, the “shrunken log2 fold change” value is -1.81.

With RRIRERPPRLPRPRPRPPEPPRP, the “shrunken log2 fold change” value turned out to be 0.333.

As to RRIRQRPPRLPRPRPRPQWWPRP, the “shrunken log2 fold change” value is 0.0549.

For RRIRARPPRLPRPRPRPLNRPRP, the “shrunken log2 fold change” value turned out to be 0.0549.

For RRIRMRPPRLPRPRPRPSAYPRP, the “shrunken log2 fold change” value was 0.319. RRIRVRPPRLPRPRPRPSWSPRP: the “shrunken log2 fold change” value turned out to be 0.0478. Next, RRIRNRPPRLPRPRPRPKYKPRP: -0.726; RRIRSRPPRLPRPRPRPLQHPRP: -0.00742.

Take RRIRCRPPRLPRPRPRPNLYPRP: the “shrunken log2 fold change” value is -0.347.

For RRIRKRPPRLPRPRPRPKDQPRP, the “shrunken log2 fold change” value came out at 0.619. Next, RRIRWRPPRLPRPRPRPYPMPRP: -0.128; RRIRYRPPRLPRPRPRPFENPRP: -0.257; RRIRWRPPRLPRPRPRPALFPRP: 0.496. The figure for RRIRHRPPRLPRPRPRPPAFPRP is 0.0237; for RRIRDRPPRLPRPRPRPTDYPRP it is -0.0921.

Turning to RRIRIRPPRLPRPRPRPTAYPRP, the “shrunken log2 fold change” value is -0.425.

For RRIRNRPPRLPRPRPRPRLHPRP, the “shrunken log2 fold change” value was found to be 0.0921. Take RRIRWRPPRLPRPRPRPFASPRP: the “shrunken log2 fold change” value was 0.177.

Turning to RRIRMRPPRLPRPRPRPLNWPRP, the “shrunken log2 fold change” value is 0.225. Next, RRIRQRPPRLPRPRPRPLGKPRP: -0.0227. RRIRYRPPRLPRPRPRPDYDPRP: the “shrunken log2 fold change” value was -0.476. The figure for RRIRFRPPRLPRPRPRPMTPPRP is -0.202; for RRIRMRPPRLPRPRPRPSIDPRP it is 0.789; for RRIRCRPPRLPRPRPRPYIQPRP it is -0.3. Next, RRIRFRPPRLPRPRPRPATTPRP: -0.0275; RRIRRRPPRLPRPRPRPPGPPRP: 0.8; RRIRHRPPRLPRPRPRPCNGPRP: -0.00865. The figure for RRIRMRPPRLPRPRPRPTICPRP is 0.0136; for RRIRKRPPRLPRPRPRPLNNPRP it is -0.0972. Consider RRIRHRPPRLPRPRPRPMHRPRP, for which the “shrunken log2 fold change” value is 0.00128. Next, RRIRPRPPRLPRPRPRPTYAPRP: 0.133.

Consider RRIRHRPPRLPRPRPRPDLIPRP, for which the “shrunken log2 fold change” value was -0.0224. Turning to RRIRKRPPRLPRPRPRPRPRPRP, the “shrunken log2 fold change” value was 1.01.

For the sequence RRIRPRPPRLPRPRPRPIDMPRP, the “shrunken log2 fold change” value is -0.0916. For RRIRARPPRLPRPRPRPERTPRP, the “shrunken log2 fold change” value amounted to 0.143. Next, RRIRERPPRLPRPRPRPNIEPRP: -0.136. Next, RRIRDRPPRLPRPRPRPIDKPRP: -0.0708. With RRIRWRPPRLPRPRPRPCRTPRP, the “shrunken log2 fold change” value stood at 0.112. Regarding RRIRLRPPRLPRPRPRPCFYPRP, the “shrunken log2 fold change” value is -0.504. The figure for RRIRQRPPRLPRPRPRPQKPPRP is 0.0718.

As for RRIRLRPPRLPRPRPRPTNEPRP, the “shrunken log2 fold change” value was -0.127. As for RRIRGRPPRLPRPRPRPNMQPRP, the “shrunken log2 fold change” value worked out at 0.492. Regarding RRIRERPPRLPRPRPRPIGYPRP, the “shrunken log2 fold change” value is -0.00962. Next, RRIRNRPPRLPRPRPRPIFVPRP: -0.0459; RRIRFRPPRLPRPRPRPGWMPRP: -0.0518; RRIRTRPPRLPRPRPRPYWVPRP: -0.0888. Next, RRIRQRPPRLPRPRPRPILTPRP: -0.955. Next, RRIRMRPPRLPRPRPRPPTTPRP: 0.991. Regarding RRIRSRPPRLPRPRPRPFIYPRP, the “shrunken log2 fold change” value was -0.82. The figure for RRIRMRPPRLPRPRPRPTTKPRP is 0.268; for RRIRSRPPRLPRPRPRPTFSPRP it is 0.019. For the sequence RRIRFRPPRLPRPRPRPHTDPRP, the “shrunken log2 fold change” value is -0.736.

Turning to RRIRWRPPRLPRPRPRPQMAPRP, the “shrunken log2 fold change” value was 0.242.
